Laboratory results: PMC2504289

Molecular target: T1, CH1° 0p (unphosphorylated C-terminal domain of histone H1°) (UniProt P10922 98-194)
T1 sequence: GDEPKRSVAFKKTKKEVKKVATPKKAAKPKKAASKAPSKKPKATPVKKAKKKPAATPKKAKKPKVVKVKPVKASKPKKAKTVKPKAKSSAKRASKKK
Test: EMSA

B1: 50 bp dsDNA fragment (dsDNA)
DNA 1: CTATGATATATAGATAGTTAATGTAATATGATATAGATATAGGGATCC
DNA 2: GGATCCCTATATCTATATCATATTACATTAACTATCTATATATCATAG
Does B1 bind?
Result: binds
